The record followed here is paper PMC4110014.

What is called stoichiometry N is the number of molecules, sites or subunits per partner or assembly.

In assay [1] the target is Caldendrin full length (UniProt O88751). In words: dynamic light scattering; Zetasizer Nano S, 25°C, 50 mM Tris, 100 mM KCl, Mg2+ with EGTA or with 50 µM Ca2+; monomer to dimer.
The target is the same in assay [2]. In words: SPR; Biacore X-100, CM5 chip, ligand amine-coupled, 25°C, flow 10 µl/min; running buffer with 1 mM Mg2+/500 µM Ca2+ (column 'Ca2+'); molar binding activity deduced from the dissociation phase. A general note: SPR reads the build-up and loss of mass on a sensor chip optically.
Assay [3] shares this target. In words: SEC; Superdex 75, ÄKTA FPLC, 50 mM Tris, 100 mM KCl, 500 µM Mg2+ with 200 µM EGTA or 100 µM Ca2+; monomer to dimer. A general note: Size exclusion chromatography separates by hydrodynamic size, large species first.
The target is the same in assay [4]. In words: cross-linking + SEC; protein incubated with 0.01% glutaraldehyde, then Superdex 75 gel filtration.
For assay [5] the target is unchanged. Kind of assay: SPR; Biacore X-100, CM5 chip, ligand amine-coupled, 25°C, flow 10 µl/min; running buffer with 1 mM Mg2+/1 mM EGTA (column 'EGTA'); molar binding activity deduced from the dissociation phase.
For assay [6], the target named is Caldendrin-C-terminus (Caldendrin-Ct, residues 137–298) (UniProt O88751). Kind of assay: SPR; Biacore X-100, CM5 chip, ligand amine-coupled, 25°C, flow 10 µl/min; running buffer with 1 mM Mg2+/500 µM Ca2+ (column 'Ca2+'); molar binding activity deduced from the dissociation phase.
For assay [7] the target is unchanged. In words: SPR; Biacore X-100, CM5 chip, ligand amine-coupled, 25°C, flow 10 µl/min; running buffer with 1 mM Mg2+/1 mM EGTA (column 'EGTA'); molar binding activity deduced from the dissociation phase.

Caldendrin-C-terminus (Caldendrin-Ct, residues 137–298), O88751 137-298 (domain or fragment; other documents disagree on this pair), sequence (O88751 137-298): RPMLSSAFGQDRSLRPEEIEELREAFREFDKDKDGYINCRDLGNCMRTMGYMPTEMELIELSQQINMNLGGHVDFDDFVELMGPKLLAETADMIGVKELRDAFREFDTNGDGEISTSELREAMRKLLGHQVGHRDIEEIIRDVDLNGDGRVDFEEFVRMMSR

With “Caldendrin full length (from UniProt O88751 1-298) (natural protein)”, the stoichiometry N in the assay with Caldendrin full length [1], in the assay with Caldendrin full length [3] and in the assay with Caldendrin full length [4] was 2 in each case. The molar binding activity is 0.0757 with Caldendrin full length [2] and 0.0215 with Caldendrin full length [5].

For the substance “Caldendrin-C-terminus (Caldendrin-Ct, residues 137–298), O88751 137-298 (domain or fragment; other documents disagree on this pair)”, the molar binding activity in assay [6] worked out at 0.0373; in assay [7], 0.0541.
